Patent publication US20190270997

Assays:
HA-tagged KMT2D S1331A = HA-tagged KMT2D S1331A (UniProt O14686)
[1] = target: HA-tagged KMT2D (full length, wild type) (UniProt O14686)
[2] = target: V5-tagged KMT2D fragment (1222-1819) (UniProt O14686)

recombinant His-AKT (MRC-PPU Reagents DU1850), sequence (P31749 whole entry): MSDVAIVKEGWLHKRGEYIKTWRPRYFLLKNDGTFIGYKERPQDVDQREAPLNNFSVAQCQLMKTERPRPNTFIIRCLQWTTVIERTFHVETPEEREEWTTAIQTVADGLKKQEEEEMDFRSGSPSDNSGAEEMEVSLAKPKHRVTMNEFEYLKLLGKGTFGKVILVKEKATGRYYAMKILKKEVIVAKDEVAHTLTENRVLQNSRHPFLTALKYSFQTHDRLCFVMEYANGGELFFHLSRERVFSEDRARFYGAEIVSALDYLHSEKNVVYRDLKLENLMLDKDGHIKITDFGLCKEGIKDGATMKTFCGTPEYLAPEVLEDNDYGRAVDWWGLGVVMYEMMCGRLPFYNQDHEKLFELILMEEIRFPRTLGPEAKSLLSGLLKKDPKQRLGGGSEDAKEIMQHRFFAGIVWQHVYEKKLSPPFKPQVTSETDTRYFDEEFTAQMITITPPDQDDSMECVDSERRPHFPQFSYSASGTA

With “recombinant His-AKT (MRC-PPU Reagents DU1850)” the “in vitro kinase assay; phosphorylation detected by phospho-RXRXX(S/T) and phospho-KMT2D (S1331) antibodies” value (HA-tagged KMT2D S1331A) was “Mutation of serine to alanine (S1331A) completely abrogated the ability of AKT to phosphorylate KMT2D in vitro”, the “in vitro kinase assay; phosphorylation detected by phospho-RXRXX(S/T) and phospho-KMT2D (S1331) antibodies” value [1] was “The kinase assay confirmed the ability of AKT to directly phosphorylate S1331” and the “in vitro kinase assay with the KMT2D (1222-1819) fragment as substrate (FIG. 11C)” value [2] was “The kinase assay confirmed the ability of AKT to directly phosphorylate S1331”.
